Experimental findings from patent US20210403565A1 (BIOATLA, published 2021) are described below.

Substitutions are numbered along the chain they refer to.

Assay [1] deals with T1, human CTLA4 expressed on the cell surface of CHO cells (human, UniProt P16410 36-223).
T1 construct: whole, on cells; also called CHO-huCTLA4; huCTLA4
T1 sequence (looked up): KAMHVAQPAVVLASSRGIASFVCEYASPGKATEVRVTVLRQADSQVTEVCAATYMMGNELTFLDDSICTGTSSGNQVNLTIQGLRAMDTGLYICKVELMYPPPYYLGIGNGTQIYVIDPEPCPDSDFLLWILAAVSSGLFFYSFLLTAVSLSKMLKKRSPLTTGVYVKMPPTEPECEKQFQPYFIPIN
Description: FACS, cells expressing human CTLA4, assay pH 6.0, MFI; lot 6972 in Tris buffer, T2W; unit from the axis Log[ng/mL]. On the procedure:
(§1) The amount of bound antibodies was quantified using anti-human IgG antibody conjugated to fluorophores. The MFI in each reaction was proportional to the amount of antibodies bound. The EC₅₀ value (in ng/mL) for binding to human CTLA4 on cells was determined by MFI of the singlets population against antibody concentration with a Prism variable slope of four-parameter dose-response curve, which was calculated using the nonlinear fit (variable slope, four parameters) model built into GraphPad Prism software (version 7.03).

The target of assay [2] is T2, recombinant human CTLA4 extracellular domain (human, UniProt P16410 36-161).
T2 construct: extracellular domain; also called huCTLA-4
T2 sequence (looked up): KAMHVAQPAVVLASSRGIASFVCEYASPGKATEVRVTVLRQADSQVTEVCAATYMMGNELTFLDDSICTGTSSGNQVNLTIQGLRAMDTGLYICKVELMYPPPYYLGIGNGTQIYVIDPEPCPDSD
The assay can be described thus: ELISA, wells coated with human CTLA4, assay pH 6.0; lot 6972 in His buffer, T2W; unit from the axis Log[ng/mL]. Here is the method:
(§2) Both ELISA and FACS analysis were used to measure the binding activity. […] The amount of bound antibodies was quantified using anti-human IgG antibody conjugated to HRP. The absorbance at 450 nm in each measurement was proportional to the amount of antibodies bound. […] EC50 value (in ng/mL) for binding to human CTLA4 was determined by absorbance at 450 nm against antibody concentration with Prism variable slope of four-parameter dose-response curve, which was calculated using the nonlinear fit (variable slope, four parameters) model built into GraphPad Prism software (version 7.03). The buffers tested included His buffer (His), Tris buffer (Tris), Glutamine buffer (Glu) and no buffer.

Assay [3] has as its target T2, recombinant human CTLA4 extracellular …. The assay can be described thus: ELISA, wells coated with human CTLA4, assay pH 6.0; lot 6972 in Tris buffer, T0; unit from the axis Log[ng/mL]. Here is the method:
as §2
For orientation: An ELISA detects its analyte on a solid surface through an enzyme-linked reagent.

Assay [4] concerns the target T3, cynomolgus CTLA4 expressed on the cell surface of CHO cells (cynomolgus, UniProt G7PL88 36-223).
T3 construct: whole, on cells; also called CHO-cynoCTLA4
T3 sequence: T1 sequence (looked up) with S14N, I18T, L106M
Description: FACS saturation, CHO-cynoCTLA-4, pH 7.4, MFI, titration up to about log 6.5; reaches about 330000 against about 700000 for Ipi Analogue; no unit in the table, unit from the axis Log Antibodies [ng/ml]. Here is the method:
(§3) The amount of antibodies bound on the cells was quantified using anti-human IgG antibody conjugated to fluorophores. EC₅₀ values at pH 6.0 and 7.4 for binding to cells were calculated using the nonlinear fit (variable slope, four parameters) model built into GraphPad Prism software (version 7.03). The expression levels of human CTLA4 or cynomolgus CTLA4 on the surface of the CHO cells were determined using a BD QuantiBRITE™ PE kit.
(§4) Finally, saturations of the antibodies on the CHO cells expressing human or cynomolgus CTLA4 at pH 7.4 were also measured by FACS (FIGS. 8A-8B).

In assay [5] the target is T3, cynomolgus CTLA4 expressed on the cell …. The assay can be described thus: FACS, CHO cells expressing cynomolgus CTLA4 (CHO-cynoCTLA-4), pH 7.4, MFI; curve near baseline up to log 4, about 150000 at log 5, no plateau; no unit in the table, unit from the axis Log Antibodies [ng/ml]. Here is the method: as §3
At least two independent duplicate FACS experiments were performed for each antibody using each of the cell lines. The binding activities at different concentrations of the antibodies are plotted in these figures.
For orientation: Flow cytometry measures light scatter and fluorescence of single cells or particles in a stream.

Assay [6] has as its target T2, recombinant human CTLA4 extracellular …. Description: ELISA, wells coated with human CTLA4, assay pH 6.0; lot 6978 in Tris buffer, T2W; unit from the axis Log[ng/mL]. On the procedure:
as §2

The target of assay [7] is T1, human CTLA4 expressed on the cell …. The assay can be described thus: FACS, cells expressing human CTLA4, assay pH 6.0, MFI; lot 6978 in Glu buffer, T2W; unit from the axis Log[ng/mL]. Here is the method: as §1
The target is the same in assay [8]. The assay can be described thus: FACS, cells expressing human CTLA4, assay pH 7.4, MFI; lot 6978 in His buffer, T2W; unit from the axis Log[ng/mL]. On the procedure: as §1
The target of assay [9] is T2, recombinant human CTLA4 extracellular …. The assay can be described thus: ELISA, wells coated with human CTLA4, assay pH 7.4; lot 6978 in Tris buffer, T2W; curve still rising at log 3 (OD450 at most about 0.3), no plateau; unit from the axis Log[ng/mL]. Here is the method: as §2
Assay [10] deals with T1, human CTLA4 expressed on the cell …. Description: FACS saturation, CHO-huCTLA-4, pH 7.4, MFI, titration up to about log 6.5, curve still rising at the end; no unit in the table, unit from the axis Log Antibodies [ng/ml]. On the procedure: as §3, §4

B1: BA-087-05-19 (antibody, V domains shown)
VH: EVQLVESGGGLVQPGGSLRLSCAASGFTFSHYTMHWVRQAPGKGLEWVSFISYDGNNKYYADSVKGRFTISRDNSKNTLYLQMNSLRAEDTAVYYCARTGWLGPFDYWGQGTLVTVSS
VL: AIQLTQSPSSLSASVGDRVTITCRASQYVGSSYLAWYLQKPGQSPQLLIYGAFSRATGIPARFSGSGSGTEFTLTISSLQSEDFAVYYCQQDGSSPWTFGQGTKVEIK
notes: Detected with anti-human IgG and a molecular weight of 146 kDa was used in SPR, so it was tested as a whole IgG; also called BA-087-05-019; BA-087-05-19 (# 6972)
The term EC50 denotes the concentration that produces a half-maximal response. Turning to B1, the concentration giving a half-maximal response (EC50) in assay [1] came out at 0.352 µg/mL; in assay [2], 0.00704 µg/mL; in [3] it was 0.00591 µg/mL; in assay [4], 13 µg/mL.

B2: BA-087-08-32 (antibody, V domains shown)
VH: EVQLVQSGAEVKKPGATVKISCKVSGFTFSHYTMHWIRQSPSRGLEWLGFISYDGNYKYYADSVKGRFTISRDNAKNSLYLQMNSLRAEDTAVYYCARTGWLGPFDYWGQGTLVTVSS
VL: EIVMTQSPATLSVSPGERATLSCRASQSVGSSYLAWYQQKPGKAPKLLIYGAFSRATGVPSRFSGSGSGTDFTLTISSLQPEDFATYYCQQDGSSPWTFGQGTKVEIK
notes: Detected with anti-human IgG and a molecular weight of 146 kDa was used in SPR, so it was tested as a whole IgG; also called BA-087-08-032; BA-087-08-32 (# 6978)
Consider B2, for which the EC50 in assay [5] is 83.9 µg/mL; in assay [6], 0.014 µg/mL; in assay [7], 0.176 µg/mL; in assay [8], 1.18 µg/mL; in [9] it was 1.49 µg/mL; in assay [10], 69.6 µg/mL.
